Results taken from article PMC11442470.

Molecular target: GLS1 (endogenous, both KGA and GAC) (UniProt D3Z7P3)
Experiment: IP of endogenous GLS1, blot PDZD8
Conditions: reference: wild type PDZD8; sites T527

## PDZD8 (from UniProt Q8NEN9) T527A
  binding against the reference: weaker
